Source: publication doi:10.1101/340133

Experiments:
[1] = target: dynamic microtubules polymerized from αβ-tubulin on GMPCPP seeds (porcine) (UniProt P02554); experiment: TIRF microscopy of dynamic microtubules
[2] = target: dynamic microtubules polymerized from αβ-tubulin on GMPCPP seeds (porcine) (UniProt P02554); experiment: single molecule TIRF microscopy of dynamic microtubules

Sequence of UniProt P02554 (P02554 whole entry, looked up): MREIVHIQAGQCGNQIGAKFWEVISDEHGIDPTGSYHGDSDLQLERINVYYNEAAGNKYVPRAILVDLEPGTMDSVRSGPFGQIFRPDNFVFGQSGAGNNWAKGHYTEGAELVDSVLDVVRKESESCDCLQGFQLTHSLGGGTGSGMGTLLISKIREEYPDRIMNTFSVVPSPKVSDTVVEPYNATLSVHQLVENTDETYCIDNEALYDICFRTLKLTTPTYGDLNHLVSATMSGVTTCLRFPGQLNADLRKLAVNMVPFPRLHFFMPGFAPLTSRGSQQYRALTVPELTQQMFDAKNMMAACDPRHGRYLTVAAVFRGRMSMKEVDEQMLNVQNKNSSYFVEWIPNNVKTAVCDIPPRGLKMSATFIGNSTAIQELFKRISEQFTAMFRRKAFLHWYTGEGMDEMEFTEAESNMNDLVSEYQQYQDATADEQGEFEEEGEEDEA

Binder	residence ratio at MT plus-ends (average) [1]	dwell time at MT plus-ends [2]
TOG1 inactivated Alp14 (TOG1M), residues 1-690, with C-terminal mNeonGreen (domain or fragment) MSQDQEEDYSKLPLESRIVHKVAKVRLSAYEECSKSFSLSADGSDNCFELWNNQSELWKSVLTDSNVAAQEAGTAAFVAYCRFSDPSHLLKAREISVLSISEKCLTSPAAGTRENALEALMLLVEADSAAPVIESIIPSLSARSPKVIASNVAAIASLVEQFGAKVIPSKMIIPHISNLFGHADKNVRKEASRLTVNIYAWTGDPLKDLLFKDLRPVQTKELESLFAELPTEPPKQTRFLKSQQPTSEPNVETQVEEQPALENEESEPEPSDDQFDLVEEVDVLPNVDPNLETLMASSKWKDRKEALDKLLPVLSQPKIKDNDFFNLVAILTKSVSKDANIMVVINAAHCIQAMAKGLRSNFSKYASTSINALLERSKEKKANVIESLSSAMDAVLATSSLDDLAELIASFAGNKNPQIKSSCFSLFSRSFSNMTSLPSKFTVDTCAKACVPGVSDTFEPVRSAAAEALGVLMKLVGERAINQYLSPLDDIRKSKIRSFYETATVKAKAPTKKSKVKPSKQEESKVVVPSNAKAVKKSVVPSSPVVPSPRKATNKSLSMDVSKGNAFENGPLLPRPTTRPVSRGLSRGTSSSLQQKVKASTPLNSGALNETVQNLKNMELDDPAPQPAKHSRVDRYEHPKVLEDNDSTISSLESLKRENEELREQLKVEHEENISMQKQLSELKGELNTL	72.4%	
C-terminally SNAPf-tagged wt-Alp14 (residues 1-690) (domain or fragment, SNAP-Surface Atto 488 covalently attached to the SNAPf tag (5-10 nM labeled diluted into 190-195 nM non-labeled)) MSQDQEEDYSKLPLESRIVHKVWKVRLSAYEECSKSFSLSADGSDNCFELWNNQSELWKSVLTDSNVAAQEAGTAAFVAYCRFSDPSHLLKAREISVLSISEKCLTSPRAGTRENALEALMLLVEADSAAPVIESIIPSLSARSPKVIASNVAAIASLVEQFGAKVIPSKMIIPHISNLFGHADKNVRKEASRLTVNIYRWTGDPLKDLLFKDLRPVQTKELESLFAELPTEPPKQTRFLKSQQPTSEPNVETQVEEQPALENEESEPEPSDDQFDLVEEVDVLPNVDPNLETLMASSKWKDRKEALDKLLPVLSQPKIKDNDFFNLVAILTKSVSKDANIMVVINAAHCIQAMAKGLRSNFSKYASTSINALLERSKEKKANVIESLSSAMDAVLATSSLDDLAELIASFAGNKNPQIKSSCFSLFSRSFSNMTSLPSKFTVDTCAKACVPGVSDTFEPVRSAAAEALGVLMKLVGERAINQYLSPLDDIRKSKIRSFYETATVKAKAPTKKSKVKPSKQEESKVVVPSNAKAVKKSVVPSSPVVPSPRKATNKSLSMDVSKGNAFENGPLLPRPTTRPVSRGLSRGTSSSLQQKVKASTPLNSGALNETVQNLKNMELDDPAPQPAKHSRVDRYEHPKVLEDNDSTISSLESLKRENEELREQLKVEHEENISMQKQLSELKGELNTL		129 s

Continued, values first:

residence ratio at MT plus-ends (average) [1]	dwell time at MT plus-ends [2]	Binder
89.4%		wt-Alp14 (residues 1-690) with C-terminal mNeonGreen (domain or fragment) MSQDQEEDYSKLPLESRIVHKVWKVRLSAYEECSKSFSLSADGSDNCFELWNNQSELWKSVLTDSNVAAQEAGTAAFVAYCRFSDPSHLLKAREISVLSISEKCLTSPRAGTRENALEALMLLVEADSAAPVIESIIPSLSARSPKVIASNVAAIASLVEQFGAKVIPSKMIIPHISNLFGHADKNVRKEASRLTVNIYRWTGDPLKDLLFKDLRPVQTKELESLFAELPTEPPKQTRFLKSQQPTSEPNVETQVEEQPALENEESEPEPSDDQFDLVEEVDVLPNVDPNLETLMASSKWKDRKEALDKLLPVLSQPKIKDNDFFNLVAILTKSVSKDANIMVVINAAHCIQAMAKGLRSNFSKYASTSINALLERSKEKKANVIESLSSAMDAVLATSSLDDLAELIASFAGNKNPQIKSSCFSLFSRSFSNMTSLPSKFTVDTCAKACVPGVSDTFEPVRSAAAEALGVLMKLVGERAINQYLSPLDDIRKSKIRSFYETATVKAKAPTKKSKVKPSKQEESKVVVPSNAKAVKKSVVPSSPVVPSPRKATNKSLSMDVSKGNAFENGPLLPRPTTRPVSRGLSRGTSSSLQQKVKASTPLNSGALNETVQNLKNMELDDPAPQPAKHSRVDRYEHPKVLEDNDSTISSLESLKRENEELREQLKVEHEENISMQKQLSELKGELNTL
	57.4 s	SNAPf-tagged TOG1M Alp14 (residues 1-690) (domain or fragment, SNAP-Surface Atto 488 covalently attached to the SNAPf tag) MSQDQEEDYSKLPLESRIVHKVAKVRLSAYEECSKSFSLSADGSDNCFELWNNQSELWKSVLTDSNVAAQEAGTAAFVAYCRFSDPSHLLKAREISVLSISEKCLTSPAAGTRENALEALMLLVEADSAAPVIESIIPSLSARSPKVIASNVAAIASLVEQFGAKVIPSKMIIPHISNLFGHADKNVRKEASRLTVNIYAWTGDPLKDLLFKDLRPVQTKELESLFAELPTEPPKQTRFLKSQQPTSEPNVETQVEEQPALENEESEPEPSDDQFDLVEEVDVLPNVDPNLETLMASSKWKDRKEALDKLLPVLSQPKIKDNDFFNLVAILTKSVSKDANIMVVINAAHCIQAMAKGLRSNFSKYASTSINALLERSKEKKANVIESLSSAMDAVLATSSLDDLAELIASFAGNKNPQIKSSCFSLFSRSFSNMTSLPSKFTVDTCAKACVPGVSDTFEPVRSAAAEALGVLMKLVGERAINQYLSPLDDIRKSKIRSFYETATVKAKAPTKKSKVKPSKQEESKVVVPSNAKAVKKSVVPSSPVVPSPRKATNKSLSMDVSKGNAFENGPLLPRPTTRPVSRGLSRGTSSSLQQKVKASTPLNSGALNETVQNLKNMELDDPAPQPAKHSRVDRYEHPKVLEDNDSTISSLESLKRENEELREQLKVEHEENISMQKQLSELKGELNTL
